# Measured values as given in the supplement of paper PMC10724198.
# ± gives the standard deviation of the averaged measurements.
# System: Saccharomyces cerevisiae
# Assay: protein stability index of tFT-peptide fusion (C-terminal peptide) (PSI (0-1 scale)); higher = more stable (slower turnover)
# Conditions: genetic background: das1 deletion; temperature: 30 C
# Experimental: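 MPS profiling in S. cerevisiae of the tFT-X12 degron library: putative degron peptides plus stable controls, 12 aa, fused to the C-terminus of a sfGFP-mCherry timer. Cells are FACS-sorted into 8 mCherry/sfGFP bins and deep-sequenced. PSI runs from 0 (unstable) to 1 (stable). Backgrounds are wild type, das1Δ and doa10Δ at 30 °C, and wild type, das1Δ, cdc34-1 and cdc53-1 at 37 °C; 2-3 technical replicates each.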
# 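Note: PSI is a weighted mean of sequencing reads over stability bins, variants kept only with over 10 reads, mCherry proximal and sfGFP distal, peptide attached via GGGS linker.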
row,Sequence,protein stability index
1,RIYIRVSLIAPR,0.48 ± 0.021
2,RLFMVLYRRFVL,0.626 ± 0.019
3,RLVWGGLEMFVC,0.496 ± 0.026
4,RPALVSIFLSAY,0.4 ± 0.023
5,RPLRRPRLPLLL,0.646 ± 0.0082
6,RQFRNPLYAFVC,0.566 ± 0.019
7,RQRQLAKKQKNA,0.646 ± 0.0074
8,RRFKINKKNKKF,0.64 ± 0.048
9,RRWGFRSFLVGI,0.712 ± 0.026
10,RSGGVPGFGRLC,0.661 ± 0.02
11,RSLRLFGCLGSL,0.647 ± 0.019
12,RSWMRHVLRVAS,0.525 ± 0.026
13,RVDEVVKKLRTL,0.667 ± 0.012
14,RVHYELEQIVIK,0.581 ± 0.0072
15,RVSVNDGRRDSV,0.652 ± 0.039
16,RWFPPPQYLRLV,0.598 ± 0.02
17,RYEKIIKQINKQ,0.655 ± 0.037
18,RYSVIRWMLIVC,0.0885 ± 0.021
19,SALLLWAISIIC,0.169 ± 0.031
20,SCDMIVTLIQIR,0.375 ± 0.033

row,Sequence,protein stability index
1,SCICTSCLVLVL,0.327 ± 0.032
2,SCPEFNIRVRNG,0.661 ± 0.023
3,SCSHYRLICSRL,0.752 ± 0.022
4,SDVHLKSEALAA,0.569 ± 0.025
5,SFFLIISFFVRV,0.23 ± 0.049
6,SFFSFLLLRVPC,0.203 ± 0.026
7,SFGSMIITYAWG,0.467 ± 0.021
8,SFWLGVGIFFVG,0.434 ± 0.028
9,SFYVWILLWSYY,0.252 ± 0.023
10,SGGRFVLFIIAV,0.376 ± 0.031
11,SGVHWFRGNSWG,0.653 ± 0.0093
12,SHGKDVLNKINS,0.633 ± 0.025
13,SHTRPPVTAPLH,0.646 ± 0.0068
14,SIFSIFFLVRNF,0.436 ± 0.037
15,SIFSIRRQISFS,0.653 ± 0.017
16,SILVLGRSVGVG,0.44 ± 0.027
17,SIQMNCILLLVI,0.213 ± 0.026
18,SKPFPRHIFSLH,0.663 ± 0.026
19,SLCWSYVWVSCP,0.247 ± 0.024
20,SLFERLSPVLCF,0.23 ± 0.024

row,Sequence,protein stability index
1,SLFVLLVSALLH,0.212 ± 0.025
2,SLGRYVSFLFVV,0.565 ± 0.024
3,SLLSELILVGVS,0.284 ± 0.035
4,SLLWLYSAFVWY,0.347 ± 0.032
5,SLRCILISTRVK,0.331 ± 0.046
6,SLVFCYSLFVFI,0.381 ± 0.039
7,SLYSFRCFFVLF,0.408 ± 0.022
8,SPKFMCSLSCWW,0.685 ± 0.071
9,SPLLLIIFRSLC,0.436 ± 0.039
10,SREPPTSTSSRH,0.685 ± 0.012
11,SRFPARCLLCCW,0.454 ± 0.036
12,SRMIPSAFLLVI,0.507 ± 0.016
13,SSAQKVMELQIV,0.648 ± 0.018
14,SSLGILHWRLHS,0.646 ± 0.011
15,SVAWFIYVARSI,0.482 ± 0.017
16,SVCCSLLAVASP,0.364 ± 0.022
17,SVFFALFLRCTP,0.34 ± 0.031
18,SVGVVWVLSVEG,0.33 ± 0.031
19,SVTFVVYFISGG,0.409 ± 0.022
20,SWAILFVLEGFK,0.37 ± 0.021

# Same assay, conditions: genetic background: das1 deletion; temperature: 37 C
row,Sequence,protein stability index
1,RIYIRVSLIAPR,0.5646 ± 0.0015
2,RLFMVLYRRFVL,0.716 ± 0.018
3,RLVWGGLEMFVC,0.654 ± 0.0094
4,RPALVSIFLSAY,0.553 ± 0.0066
5,RPLRRPRLPLLL,0.6926 ± 0.0026
6,RQFRNPLYAFVC,0.697 ± 0.014
7,RQRQLAKKQKNA,0.73 ± 0.0076
8,RRFKINKKNKKF,0.761 ± 0.016
9,RRWGFRSFLVGI,0.803 ± 0.026
10,RSGGVPGFGRLC,0.7301 ± 0.003
11,RSLRLFGCLGSL,0.751 ± 0.021
12,RSWMRHVLRVAS,0.719 ± 0.025
13,RVDEVVKKLRTL,0.707 ± 0.0091
14,RVHYELEQIVIK,0.664 ± 0.059
15,RVSVNDGRRDSV,0.73 ± 0.013
16,RWFPPPQYLRLV,0.68556 ± 0.00021
17,RYEKIIKQINKQ,0.7664 ± 0.0071
18,RYSVIRWMLIVC,0.13 ± 0.0059
19,SALLLWAISIIC,0.221 ± 0.011
20,SCDMIVTLIQIR,0.539 ± 0.0092

row,Sequence,protein stability index
1,SCICTSCLVLVL,0.552 ± 0.002
2,SCPEFNIRVRNG,0.731 ± 0.012
3,SCSHYRLICSRL,0.87 ± 0.012
4,SDVHLKSEALAA,0.656 ± 0.013
5,SFFLIISFFVRV,0.366 ± 0.031
6,SFFSFLLLRVPC,0.303 ± 0.022
7,SFGSMIITYAWG,0.638 ± 0.021
8,SFWLGVGIFFVG,0.618 ± 0.028
9,SFYVWILLWSYY,0.384 ± 0.032
10,SGGRFVLFIIAV,0.582 ± 0.013
11,SGVHWFRGNSWG,0.74 ± 0.027
12,SHGKDVLNKINS,0.72 ± 0.033
13,SHTRPPVTAPLH,0.72895 ± 0.00039
14,SIFSIFFLVRNF,0.59 ± 0.023
15,SIFSIRRQISFS,0.724 ± 0.012
16,SILVLGRSVGVG,0.521 ± 0.023
17,SIQMNCILLLVI,0.339 ± 0.012
18,SKPFPRHIFSLH,0.7348 ± 0.0039
19,SLCWSYVWVSCP,0.375 ± 0.0093
20,SLFERLSPVLCF,0.3548 ± 0.00059

row,Sequence,protein stability index
1,SLFVLLVSALLH,0.38251 ± 0.0002
2,SLGRYVSFLFVV,0.668 ± 0.024
3,SLLSELILVGVS,0.465 ± 0.0089
4,SLLWLYSAFVWY,0.503 ± 0.016
5,SLRCILISTRVK,0.563 ± 0.0091
6,SLVFCYSLFVFI,0.472 ± 0.012
7,SLYSFRCFFVLF,0.51 ± 0.019
8,SPKFMCSLSCWW,0.7527 ± 0.006
9,SPLLLIIFRSLC,0.623 ± 0.025
10,SREPPTSTSSRH,0.669 ± 0.016
11,SRFPARCLLCCW,0.583 ± 0.017
12,SRMIPSAFLLVI,0.627 ± 0.012
13,SSAQKVMELQIV,0.7361 ± 0.0023
14,SSLGILHWRLHS,0.7347 ± 0.0067
15,SVAWFIYVARSI,0.611 ± 0.011
16,SVCCSLLAVASP,0.323 ± 0.016
17,SVFFALFLRCTP,0.442 ± 0.005
18,SVGVVWVLSVEG,0.5415 ± 0.0018
19,SVTFVVYFISGG,0.578 ± 0.028
20,SWAILFVLEGFK,0.561 ± 0.0092
